T1: FcgRIIb (FcγRIIb) extracellular domain with C-terminal His tag (human, UniProt P31994 43-217)
T1 construct: extracellular domain; not shown: His tag attached to the C terminus
T1 sequence (looked up): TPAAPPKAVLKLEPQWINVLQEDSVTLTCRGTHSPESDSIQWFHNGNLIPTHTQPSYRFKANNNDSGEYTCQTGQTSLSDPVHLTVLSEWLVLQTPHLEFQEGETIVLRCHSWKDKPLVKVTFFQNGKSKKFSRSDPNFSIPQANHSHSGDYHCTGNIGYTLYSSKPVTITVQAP


Key:
Assay in all cases: SPR (Biacore); KD of H240-Kn061/H240-Hl071/L73-k0 divided by KD of the variant
[1] = biological target: T1, FcgRIIb (FcγRIIb) extracellular domain …
Protocol: (§1) The antibodies were assessed for the binding to each FcgR. […] The resultant value was defined as relative KD, and used as an assessment indicator.
(§2) Analysis of interaction between objective antibody and the FcγR was carried out using Biacore T100 (GE Healthcare), Biacore T200, Biacore A100, and Biacore 4000. HBS-EP+ (GE Healthcare) was used as the running buffer, and the measurement temperature was set to 25° C. Chips produced by immobilizing the antigen peptide by the amine coupling method to a Series S sensor Chip CM5 (GE Healthcare), chips produced by allowing preliminarily biotinylated antigen peptides to interact with and immobilize onto a Series S Sensor Chip SA (certified) (GE Healthcare), chips produced by immobilizing Protein L (ACTIGEN, BioVision) to Series S Sencor Chip CM5 (GE Healthcare), or chips produced by immobilizing Protein A/G (Thermo Scientific) to Series S Sencor Chip CM5 (GE Healthcare) were used. Antibodies of interest were captured onto these chips, and allowed to interact to each FcγR diluted with running buffer.

[2] = biological target: T2, FcgRIIIa V (FcγRIIIa type V) extracellular domain with C-terminal His tag (human, UniProt P08637 17-208)
T2 construct: extracellular domain; also called FcγRIIIa V; not shown: His tag attached to the C terminus
Protocol: as §1, §2

[3] = biological target: T3, FcgRIIIa F (FcγRIIIa type F) extracellular domain with C-terminal His tag (human, UniProt P08637 17-208)
T3 construct: extracellular domain; also called FcγRIIIa F; 3aF; not shown: His tag attached to the C terminus
Protocol: as §1, §2

T2 sequence (P08637 17-208 F176V limits assumed): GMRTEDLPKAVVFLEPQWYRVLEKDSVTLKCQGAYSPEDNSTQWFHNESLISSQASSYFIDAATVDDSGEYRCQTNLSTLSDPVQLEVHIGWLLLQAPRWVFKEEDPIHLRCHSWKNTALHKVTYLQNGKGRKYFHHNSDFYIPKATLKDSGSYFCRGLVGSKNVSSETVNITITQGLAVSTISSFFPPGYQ
T3 sequence (P08637 17-208): as the sequence (P08637 17-208 F176V limits assumed) above, with V160F counted along it

Binder	relative KD [1] [ratio]	relative KD [2] [ratio]	relative KD [3] [ratio]
H240-Kn061/H240-Hl071/L73-k0 variant with Y234S in H240-Kn061 (antibody, human IgG1, kappa, anti-epiregulin heterodimerized IgG1; also called H240-Kn061 Y234S) heavy 1: QDQLVQSGAEVKKPGASVKVSCKASGFNIKDTYIQWVRQAPGQGLEWMGRIDPLRKQTKYREKFEGRVTITADTSTNTAYMELSSLRSEDTAVYYCVRSGREFDYWGQGTLVTVSSASTKGPSVFPLAPSSKSTSGGTAALGCLVKDYFPEPVTVSWNSGALTSGVHTFPAVLQSSGLYSLSSVVTVPSSSLGTQTYICNVNHKPSNTKVDKKVEPKSCDKTHTCPPCPAPESYWGPSVFLFPPKPKDTLMISRTPEVTCVVVDVSDEDPEVKFNWYVDGVEVHNAKTKPREEQYNATYRVVSVLTVLHQDWLNGKEYKCKVSNKALPAPIEKTISKAKGQPREPQVCTLPPSRDELTKNQVSLWCLVKGFYPSDIAVEWESNGQPENNYKTTPPVLDSDGSFFLYSKLTVDKSRWQQGNVFSCSVMHEALHNHYTQKSLSLSP heavy 2: QDQLVQSGAEVKKPGASVKVSCKASGFNIKDTYIQWVRQAPGQGLEWMGRIDPLRKQTKYREKFEGRVTITADTSTNTAYMELSSLRSEDTAVYYCVRSGREFDYWGQGTLVTVSSASTKGPSVFPLAPSSKSTSGGTAALGCLVKDYFPEPVTVSWNSGALTSGVHTFPAVLQSSGLYSLSSVVTVPSSSLGTQTYICNVNHKPSNTKVDKKVEPKSCDKTHTCPPCPAPELLGGPSVFLFPPKPKDTLMISRTPEVTCVVVDVSHEDPEVKFNWYVDGVEVHNAKTKPREEQYNSTYRVVSVLTVLHQDWLNGKEYKCKVSNDALPMPIEETISKAKGQPREPQVYTLPPSRCELTKNQVSLSCAVKGFYPSDIAVEWESNGQPENNYKTTPPVLDSDGSFFLVSKLTVDKSRWQQGNVFSCSVMHEALHNHYTQKSLSLSP light: DIQMTQSPSSLSASVGDRVTITCRASQDIHKYIAWYQQKPGQAPRLLIQYTSTLQPGVPSRFSGSGSGTDYTFTISSLQPEDIATYYCLQYEQLRTFGGGTKVEIKRTVAAPSVFIFPPSDEQLKSGTASVVCLLNNFYPREAKVQWKVDNALQSGNSQESVTEQDSKDSTYSLSSTLTLSKADYEKHKVYACEVTHQGLSSPVTKSFNRGEC	1	0.9	0.9
H240-Kn061/H240-Hl071/L73-k0 variant with Y235L in H240-Kn061 (antibody, human IgG1, kappa, anti-epiregulin heterodimerized IgG1; also called H240-Kn061 Y235L) heavy 1: QDQLVQSGAEVKKPGASVKVSCKASGFNIKDTYIQWVRQAPGQGLEWMGRIDPLRKQTKYREKFEGRVTITADTSTNTAYMELSSLRSEDTAVYYCVRSGREFDYWGQGTLVTVSSASTKGPSVFPLAPSSKSTSGGTAALGCLVKDYFPEPVTVSWNSGALTSGVHTFPAVLQSSGLYSLSSVVTVPSSSLGTQTYICNVNHKPSNTKVDKKVEPKSCDKTHTCPPCPAPEYLWGPSVFLFPPKPKDTLMISRTPEVTCVVVDVSDEDPEVKFNWYVDGVEVHNAKTKPREEQYNATYRVVSVLTVLHQDWLNGKEYKCKVSNKALPAPIEKTISKAKGQPREPQVCTLPPSRDELTKNQVSLWCLVKGFYPSDIAVEWESNGQPENNYKTTPPVLDSDGSFFLYSKLTVDKSRWQQGNVFSCSVMHEALHNHYTQKSLSLSP heavy 2: QDQLVQSGAEVKKPGASVKVSCKASGFNIKDTYIQWVRQAPGQGLEWMGRIDPLRKQTKYREKFEGRVTITADTSTNTAYMELSSLRSEDTAVYYCVRSGREFDYWGQGTLVTVSSASTKGPSVFPLAPSSKSTSGGTAALGCLVKDYFPEPVTVSWNSGALTSGVHTFPAVLQSSGLYSLSSVVTVPSSSLGTQTYICNVNHKPSNTKVDKKVEPKSCDKTHTCPPCPAPELLGGPSVFLFPPKPKDTLMISRTPEVTCVVVDVSHEDPEVKFNWYVDGVEVHNAKTKPREEQYNSTYRVVSVLTVLHQDWLNGKEYKCKVSNDALPMPIEETISKAKGQPREPQVYTLPPSRCELTKNQVSLSCAVKGFYPSDIAVEWESNGQPENNYKTTPPVLDSDGSFFLVSKLTVDKSRWQQGNVFSCSVMHEALHNHYTQKSLSLSP light: DIQMTQSPSSLSASVGDRVTITCRASQDIHKYIAWYQQKPGQAPRLLIQYTSTLQPGVPSRFSGSGSGTDYTFTISSLQPEDIATYYCLQYEQLRTFGGGTKVEIKRTVAAPSVFIFPPSDEQLKSGTASVVCLLNNFYPREAKVQWKVDNALQSGNSQESVTEQDSKDSTYSLSSTLTLSKADYEKHKVYACEVTHQGLSSPVTKSFNRGEC	0.9	1.5	1.8
H240-Kn061/H240-Hl071/L73-k0 variant with Y235E in H240-Kn061 (antibody, human IgG1, kappa, anti-epiregulin heterodimerized IgG1; also called H240-Kn061 Y235E) heavy 1: QDQLVQSGAEVKKPGASVKVSCKASGFNIKDTYIQWVRQAPGQGLEWMGRIDPLRKQTKYREKFEGRVTITADTSTNTAYMELSSLRSEDTAVYYCVRSGREFDYWGQGTLVTVSSASTKGPSVFPLAPSSKSTSGGTAALGCLVKDYFPEPVTVSWNSGALTSGVHTFPAVLQSSGLYSLSSVVTVPSSSLGTQTYICNVNHKPSNTKVDKKVEPKSCDKTHTCPPCPAPEYEWGPSVFLFPPKPKDTLMISRTPEVTCVVVDVSDEDPEVKFNWYVDGVEVHNAKTKPREEQYNATYRVVSVLTVLHQDWLNGKEYKCKVSNKALPAPIEKTISKAKGQPREPQVCTLPPSRDELTKNQVSLWCLVKGFYPSDIAVEWESNGQPENNYKTTPPVLDSDGSFFLYSKLTVDKSRWQQGNVFSCSVMHEALHNHYTQKSLSLSP heavy 2: QDQLVQSGAEVKKPGASVKVSCKASGFNIKDTYIQWVRQAPGQGLEWMGRIDPLRKQTKYREKFEGRVTITADTSTNTAYMELSSLRSEDTAVYYCVRSGREFDYWGQGTLVTVSSASTKGPSVFPLAPSSKSTSGGTAALGCLVKDYFPEPVTVSWNSGALTSGVHTFPAVLQSSGLYSLSSVVTVPSSSLGTQTYICNVNHKPSNTKVDKKVEPKSCDKTHTCPPCPAPELLGGPSVFLFPPKPKDTLMISRTPEVTCVVVDVSHEDPEVKFNWYVDGVEVHNAKTKPREEQYNSTYRVVSVLTVLHQDWLNGKEYKCKVSNDALPMPIEETISKAKGQPREPQVYTLPPSRCELTKNQVSLSCAVKGFYPSDIAVEWESNGQPENNYKTTPPVLDSDGSFFLVSKLTVDKSRWQQGNVFSCSVMHEALHNHYTQKSLSLSP light: DIQMTQSPSSLSASVGDRVTITCRASQDIHKYIAWYQQKPGQAPRLLIQYTSTLQPGVPSRFSGSGSGTDYTFTISSLQPEDIATYYCLQYEQLRTFGGGTKVEIKRTVAAPSVFIFPPSDEQLKSGTASVVCLLNNFYPREAKVQWKVDNALQSGNSQESVTEQDSKDSTYSLSSTLTLSKADYEKHKVYACEVTHQGLSSPVTKSFNRGEC	0.8	3.2	2.2
H240-Kn061/H240-Hl071/L73-k0 variant with Y235F in H240-Kn061 (antibody, human IgG1, kappa, anti-epiregulin heterodimerized IgG1; also called H240-Kn061 Y235F) heavy 1: QDQLVQSGAEVKKPGASVKVSCKASGFNIKDTYIQWVRQAPGQGLEWMGRIDPLRKQTKYREKFEGRVTITADTSTNTAYMELSSLRSEDTAVYYCVRSGREFDYWGQGTLVTVSSASTKGPSVFPLAPSSKSTSGGTAALGCLVKDYFPEPVTVSWNSGALTSGVHTFPAVLQSSGLYSLSSVVTVPSSSLGTQTYICNVNHKPSNTKVDKKVEPKSCDKTHTCPPCPAPEYFWGPSVFLFPPKPKDTLMISRTPEVTCVVVDVSDEDPEVKFNWYVDGVEVHNAKTKPREEQYNATYRVVSVLTVLHQDWLNGKEYKCKVSNKALPAPIEKTISKAKGQPREPQVCTLPPSRDELTKNQVSLWCLVKGFYPSDIAVEWESNGQPENNYKTTPPVLDSDGSFFLYSKLTVDKSRWQQGNVFSCSVMHEALHNHYTQKSLSLSP heavy 2: QDQLVQSGAEVKKPGASVKVSCKASGFNIKDTYIQWVRQAPGQGLEWMGRIDPLRKQTKYREKFEGRVTITADTSTNTAYMELSSLRSEDTAVYYCVRSGREFDYWGQGTLVTVSSASTKGPSVFPLAPSSKSTSGGTAALGCLVKDYFPEPVTVSWNSGALTSGVHTFPAVLQSSGLYSLSSVVTVPSSSLGTQTYICNVNHKPSNTKVDKKVEPKSCDKTHTCPPCPAPELLGGPSVFLFPPKPKDTLMISRTPEVTCVVVDVSHEDPEVKFNWYVDGVEVHNAKTKPREEQYNSTYRVVSVLTVLHQDWLNGKEYKCKVSNDALPMPIEETISKAKGQPREPQVYTLPPSRCELTKNQVSLSCAVKGFYPSDIAVEWESNGQPENNYKTTPPVLDSDGSFFLVSKLTVDKSRWQQGNVFSCSVMHEALHNHYTQKSLSLSP light: DIQMTQSPSSLSASVGDRVTITCRASQDIHKYIAWYQQKPGQAPRLLIQYTSTLQPGVPSRFSGSGSGTDYTFTISSLQPEDIATYYCLQYEQLRTFGGGTKVEIKRTVAAPSVFIFPPSDEQLKSGTASVVCLLNNFYPREAKVQWKVDNALQSGNSQESVTEQDSKDSTYSLSSTLTLSKADYEKHKVYACEVTHQGLSSPVTKSFNRGEC	1.2	1.5	1.3
